B1: Nucleolar RNA helicase 2 (Homo sapiens), Q9NR30 (parent)
chain: MPGKLRSDAGLESDTAMKKGETLRKQTEEKEKKEKPKSDKTEEIAEEEETVFPKAKQVKKKAEPSEVDMNSPKSKKAKKKEEPSQNDISPKTKSLRKKKEPIEKKVVSSKTKKVTKNEEPSEEEIDAPKPKKMKKEKEMNGETREKSPKLKNGFPHPEPDCNPSEAASEESNSEIEQEIPVEQKEGAFSNFPISEETIKLLKGRGVTFLFPIQAKTFHHVYSGKDLIAQARTGTGKTFSFAIPLIEKLHGELQDRKRGRAPQVLVLAPTRELANQVSKDFSDITKKLSVACFYGGTPYGGQFERMRNGIDILVGTPGRIKDHIQNGKLDLTKLKHVVLDEVDQMLDMGFADQVEEILSVAYKKDSEDNPQTLLFSATCPHWVFNVAKKYMKSTYEQVDLIGKKTQKTAITVEHLAIKCHWTQRAAVIGDVIRVYSGHQGRTIIFCETKKEAQELSQNSAIKQDAQSLHGDIPQKQREITLKGFRNGSFGVLVATNVAARGLDIPEVDLVIQSSPPKDVESYIHRSGRTGRAGRTGVCICFYQHKEEYQLVQVEQKAGIKFKRIGVPSATEIIKASSKDAIRLLDSVPPTAISHFKQSAEKLIEEKGAVEALAAALAHISGATSVDQRSLINSNVGFVTMILQCSIEMPNISYAWKELKEQLGEEIDSKVKGMVFLKGKLGVCFDVPTASVTEIQEKWHDSRRWQLSVATEQPELEGPREGYGGFRGQREGSRGFRGQRDGNRRFRGQREGSRGPRGQRSGGGNKSNRSQNKGQKRSFSKAFGQ

The variants in this test derive from B1. The following applies: with ncap_sars2 N.
Consider D339H;E340G, for which the “effect of a mutation on the interaction” value is reported as “with no effect”.

On to S375L;A376E, for which the “effect of a mutation on the interaction” value is “with no effect”.
